Among the data in the supplement of paper PMC10126150 are switch fluorescence ratio values, retold here.

± gives the standard deviation of the averaged measurements.

The data set relates to ATP. Put plainly: switch fluorescence ratio, 500 uM ATP over buffer (Cy3 cluster intensity, sum of 5 cycles each) (fold (ratio)); higher = stronger signal-on switching upon ATP binding; sequences stand for … in TCGTCGGCAGCGTCAGATGTGTATAAGAGACAGTTTTTTTTTTTTTTTTTTTTTTTTT…TC. The following applies: aptamer strand: ATP DNA aptamer (quencher-CACCTGGGGGAGTATTGCGGAGGAAGG + anchor), 100 nM annealed; ATP concentration: 500 uM. Put shortly: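 Per cluster, summed Cy3 intensity from the target cycles was divided by that from the buffer cycles to give the fluorescence ratio, then averaged per switch-domain sequence. Clusters outside 100-1000 RFU were excluded. The Cy3-labelled switching-strand clusters, on a modified Illumina MiSeq flow-cell, were annealed to 100 nM quencher-labelled ATP aptamer and imaged in selection buffer, then after 15 min with 500 uM ATP at 22 °C, for five cycles with NaOH stripping and re-annealing between them.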
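Further: ATP exposure 15 min at 22 °C before imaging.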

Turning to AGAGGGGCGT, the switch fluorescence ratio stood at 0.999 ± 0.033.
With AGAGGGGGAA, the switch fluorescence ratio is 0.978 ± 0.014.
Consider AGAGGGGGAG, for which the switch fluorescence ratio was 0.979 ± 0.027.
Next, AGAGGGTCCA: 0.962 ± 0.021; AGAGGGTTAA: 0.988 ± 0.031; AGAGGTAACT: 0.993 ± 0.014.
Next, AGAGGTAAGC: 1.02 ± 0.019; AGAGGTCTAC: 0.982 ± 0.031; AGAGGTGCAT: 1.02 ± 0.017.
The result for AGAGTAATCG reads 0.983 ± 0.07.
AGAGTACGTA: the switch fluorescence ratio came to 1.041 ± 0.0065.
The result for AGAGTAGAGT reads 0.9995 ± 0.0088; that for AGAGTAGGGG, 0.979 ± 0.029; that for AGAGTATGG, 0.965 ± 0.035.
As to AGAGTATTTG, the switch fluorescence ratio was found to be 0.994 ± 0.014.
For AGAGTCGTTT, the switch fluorescence ratio came to 0.9853 ± 0.0046.
The result for AGAGTGAGAG reads 0.9931 ± 0.0056; that for AGAGTGAGGG, 0.977 ± 0.0012.
For the sequence AGAGTGAGTT, the switch fluorescence ratio came out at 0.9533 ± 0.0045.
Take AGAGTGATCT: the switch fluorescence ratio came out at 0.98437 ± 0.00057.
Next, AGAGTGATGT: 1 ± 0.041; AGAGTGGACA: 1 ± 0.042; AGAGTGGAGA: 1.009 ± 0.0004.
The result for AGAGTGTAGG reads 1.08 ± 0.034.
Regarding AGAGTGTGGC, the switch fluorescence ratio stood at 1.07 ± 0.039.
The result for AGAGTTAAAG reads 0.9917 ± 0.0072; that for AGAGTTAAGT, 0.989 ± 0.032.
The result for AGAGTTACCG reads 1.04 ± 0.017; that for AGAGTTGGGT, 0.984 ± 0.02; that for AGAGTTTGT, 0.987 ± 0.014.
Next, AGATAATTGG: 1.007 ± 0.0061; AGATACTTTC: 1.03 ± 0.024; AGATAGGCGT: 0.9959 ± 0.0056.
For AGATAGGGCA, the switch fluorescence ratio is 0.994 ± 0.032.
Next, AGATAGTTGT: 1.01 ± 0.016; AGATATAACT: 1.021 ± 0.0066; AGATATGAAC: 1.04 ± 0.044.
Turning to AGATATTTTG, the switch fluorescence ratio was 0.988 ± 0.039.
Next, AGATCAAGAG: 0.974 ± 0.04; AGATCAGTGC: 0.997 ± 0.011.
The result for AGATCATGCG reads 1.02 ± 0.045.
Next, AGATCGAGTA: 0.989 ± 0.033; AGATCGGTTT: 1 ± 0.042; AGATCTAAGG: 1 ± 0.019.
For AGATCTTGCG, the switch fluorescence ratio is 0.979 ± 0.019.
The result for AGATGAATTC reads 0.982 ± 0.036; that for AGATGAGCCG, 1.05 ± 0.11.
The result for AGATGATATA reads 0.999 ± 0.013.
Next, AGATGCCTTC: 1.01 ± 0.029; AGATGCTTTA: 0.9908 ± 0.0027.
As for AGATGGAGCT, the switch fluorescence ratio was found to be 0.9875 ± 0.0055.
The result for AGATGGAGGA reads 0.99 ± 0.033; that for AGATGGGGAG, 1.04 ± 0.064.
Consider AGATGGGGGA, for which the switch fluorescence ratio amounted to 0.983 ± 0.026.
Next, AGATGGTTGC: 0.958 ± 0.021; AGATGTGACG: 0.9686 ± 0.0087; AGATGTTTGG: 0.956 ± 0.027.
The result for AGATTAAACA reads 1.02 ± 0.032; that for AGATTAGGGG, 1.04 ± 0.041.
With AGATTAGTTC, the switch fluorescence ratio was 1.002 ± 0.0056.
The result for AGATTAGTTG reads 1.016 ± 0.0039.
As to AGATTATAGG, the switch fluorescence ratio is 1.01 ± 0.018.
AGATTCGTAC: the switch fluorescence ratio came to 1.02 ± 0.021.
Next, AGATTGCATA: 0.994 ± 0.015.
The result for AGATTGGAAT reads 0.9968 ± 0.0058.
The result for AGATTGGTTA reads 0.992 ± 0.021; that for AGATTGTGCA, 0.963 ± 0.011.
Consider AGATTGTTAG, for which the switch fluorescence ratio was found to be 1.015 ± 0.0027.
As for AGATTTATCC, the switch fluorescence ratio turned out to be 0.977 ± 0.065.
The result for AGATTTGGTT reads 1.01 ± 0.032; that for AGATTTGTGG, 0.9917 ± 0.0033.
The result for AGATTTTCCG reads 1.01 ± 0.023; that for AGATTTTGCG, 0.991 ± 0.01.
AGATTTTTAA: the switch fluorescence ratio stood at 1.004 ± 0.0097.
Next, AGATTTTTGA: 0.942 ± 0.069.
The result for AGATTTTTGT reads 0.972 ± 0.019; that for AGATTTTTTA, 0.954 ± 0.016.
Next, AGCAAATAGT: 1.28 ± 0.028; AGCAAGGGCA: 1.0103 ± 6.2e-05.
As for AGCAAGTCCT, the switch fluorescence ratio came to 1.12 ± 0.015.
As for AGCAATAGTT, the switch fluorescence ratio was found to be 2.97 ± 0.051.
As for AGCAATTGTG, the switch fluorescence ratio was determined as 1.04 ± 0.029.
Next, AGCACATTTG: 0.97 ± 0.017; AGCACGGGAA: 1.03 ± 0.03; AGCACGGTTA: 1.04 ± 0.049.
The result for AGCACGTTAT reads 1.256 ± 0.012; that for AGCAGAGAAA, 0.982 ± 0.046; that for AGCAGAGTTG, 1 ± 0.018.
Next, AGCAGGAAGG: 0.9956 ± 0.0041; AGCAGGGGTT: 1 ± 0.053; AGCATAAGGC: 1.02 ± 0.019.
With AGCATCACTT, the switch fluorescence ratio was determined as 1.04 ± 0.029.
The result for AGCATGAGTA reads 1.01 ± 0.014; that for AGCATGATGC, 0.991 ± 0.037.
The result for AGCATGCCTG reads 1.02 ± 0.058; that for AGCATGGGGG, 1.01 ± 0.023; that for AGCATGGTGG, 1.02 ± 0.046.
Next, AGCATGTAGA: 0.989 ± 0.046.
AGCATTTTCC: the switch fluorescence ratio is 1.135 ± 0.0063.
The result for AGCCAAAATA reads 1.04 ± 0.017; that for AGCCAGGGAG, 1.028 ± 0.0056; that for AGCCAGTTCG, 1 ± 0.012.
The result for AGCCATATAG reads 1.048 ± 0.0066; that for AGCCCCATAG, 1.17 ± 0.042; that for AGCCGAATTT, 0.997 ± 0.019.
Next, AGCCGCCCCG: 1.1 ± 0.1; AGCCGCTCGT: 0.99 ± 0.033; AGCCGGGGTA: 0.995 ± 0.025.
For AGCCGTACTC, the switch fluorescence ratio stood at 1.2 ± 0.23.
Take AGCCGTCAAC: the switch fluorescence ratio is 1.05 ± 0.041.
The result for AGCCGTCCCC reads 0.993 ± 0.02.
The result for AGCCGTTTGA reads 1.023 ± 0.0016.
The result for AGCCTACTTT reads 1 ± 0.038; that for AGCCTAGGAT, 1.04 ± 0.0021.
Turning to AGCCTCGTGG, the switch fluorescence ratio came to 0.992 ± 0.019.
Next, AGCCTGACTG: 1.12 ± 0.033; AGCGAAGGGG: 1.01 ± 0.047.
Next, AGCGACGGGA: 1.1 ± 0.048; AGCGAGGGA: 1.029 ± 0.0068.
Next, AGCGAGTTTT: 1.01 ± 0.012.
